Reference: publication PMC7721705 (2020)

B1: native CXCR4 with C-terminal GSSG linker and rho1D4 tag (receptor)
chain: MEGISIYTSDNYTEEMGSGDYDSMKEPCFREENANFNKIFLPTIYSIIFLTGIVGNGLVILVMGYQKKLRSMTDKYRLHLSVADLLFVITLPFWAVDAVANWYFGNFLCKAVHVIYTVNLYSSVLILAFISLDRYLAIVHATNSQRPRKLLAEKVVYVGVWIPALLLTIPDFIFANVSEADDRYICDRFYPNDLWVVVFQFQHIMVGLILPGIVILSCYCIIISKLSHSKGHQKRKALKTTVILILAFFACWLPYYIGISIDSFILLEIIKQGCEFENTVHKWISITEALAFFHCCLNPILYAFLGAKFKTSAQHALTSVSRGSSLKILSKGKRGGHSSVSTESESSSFHSS
B2: CXCR4^QTY29 with C-terminal GSSG linker and rho1D4 tag (receptor)
chain: MEGISIYTSDNYTEEMGSGDYDSMKEPCFREENANYNKTFLPTIYSIIYQTGTVGNGLVILVMGYQKKLRSMTDKYRLHLSTADLQFVTTLPYWATDATANWYFGNFLCKAVHVIYTVNLYSSVLILAFISLDRYLAIVHATNSQRPRKLLAEKVVYVGVWTPAQLLTTPDYTFANVSEADDRYICDRFYPNDLWVVVFQFQHIMVGLILPGIVILSCYCIIISKLSHSKGHQKRKALKTTTTLIQAFFACWQPYYTGISIDSYILLEIIKQGCEFENTVHKWISTTEAQAFYHCCTNPTQYAYLGAKFKTSAQHALTSVSRGSSLKILSKGKRGGHSSVSTESESSSFHSS

Legend:
CXCL12 (SDF1α) [1] = biological target: T1, CXCL12 (SDF1α) (UniProt P48061-2 22-89); assay: SPR; low-activity fraction (KD1, heterogeneous ligand model)
CXCL12 (SDF1α) [2] = biological target: T1, CXCL12 (SDF1α); assay: SPR; low-activity fraction (kd1)
CXCL12 (SDF1α) [3] = biological target: T1, CXCL12 (SDF1α); assay: SPR; high-activity fraction (kd2)
CXCL12 (SDF1α) [4] = biological target: T1, CXCL12 (SDF1α); assay: SPR; high-activity fraction (KD2, heterogeneous ligand model)

T1 sequence (P48061 22-89): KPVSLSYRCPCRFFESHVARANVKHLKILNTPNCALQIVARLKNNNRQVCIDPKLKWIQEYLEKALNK

Row | Binder | Kd (CXCL12 (SDF1α) [1]) [nM] | koff (CXCL12 (SDF1α) [2]) [s⁻¹] | koff (CXCL12 (SDF1α) [3]) [s⁻¹] | Kd (CXCL12 (SDF1α) [4]) [nM]
1 | B1 | 437 | 0.0375 | 0.00159 | 56.3
2 | B2 | 1660 | 0.0356 | 0.00171 | 29
